Measurements: patent publication US20260043816A1

Experiments:
[1] = biological target: peptides 11 and 23 (human); test: pairing sandwich ELISA, biotinylated antibody as detector, target titrated
[2] = biological target: peptides 11 and 23 (human); test: pairing sandwich ELISA, antibody coated as capture, target titrated

EC50 [1]: 0.056 nM | EC50 [2]: 0.904 nM
B1: ACI-8070-942.30D12-Ab1 (antibody, V domains shown)
VH: DVQLVESGGGLVQPGGSRKLSCEASGFTFSSIGMHWVRQAPEKGLEWVAYITSGSSTIYYADTVKGRFTISRDNPKNTLFLQMTSLRSEDTAIYYCAGSGPGTDYWGQGTTLTVSS
VL: DIKMTQSPSSMYASLGERVTITCKASQDINSYLSWFQQKPGKSPKTLIYRANRLVDGVPSRFSGSGSGQDYSLTISSLEYEDMGIYYCLQYDEFPLTFGAGTKLELK
